Positions count from the first letter of the chain named. Numbers in names are those of the source.
B1: GLXI;2 (Col-0 GLXI;2) (Arabidopsis thaliana) (protein)
chain: MAEASDLLEWPKKDNRRFLHVVYRVGDLDRTIEFYTEVFGMKLLRKRDIPEEKYSNAFLGFGPETSNFVVELTYNYGVSSYDIGTGFGHFAISTQDVSKLVENVRAKGGNVTREPGPVKGGGSVIAFVKDPDGYTFELIQRGPTPEPFCQVMLRVGDLDRAIKFYEKALGMRLLRKIERPEYKYTIGMMGYAEEYESIVLELTYNYDVTEYTKGNAYAQIAIGTDDVYKSGEVIKIVNQELGGKITREAGPLPGLGTKIVSFLDPDGWKTVLVDNKDFLKELE
notes: monomer; two domains, active site 2 (His89, Glu137, Gln150, Glu201)
B2: GLXI;2 (Col-0 GLXI;2) (Arabidopsis thaliana; K229N) (protein)
chain: B1 chain with K229N
notes: as for B1
B3: GLXI;2 (Col-0 GLXI;2) (Arabidopsis thaliana; F278I) (protein)
chain: B1 chain with F278I
notes: as for B1
B4: GLXI;2 (Col-0 GLXI;2) (Arabidopsis thaliana; F278I/K229N) (protein)
chain: B1 chain with K229N, F278I
notes: as for B1

Assays:
purified protein [1] = substrate: CC(=O)C=O; test: purified protein; type: biochemical, Arabidopsis thaliana; settings: true substrate is the hemithioacetal of MGO and GSH (preformed 30 min; HTA concentration calculated with Kdiss 3.0 mM), 1.7 mM GSH, 0.5 mM Ni2+, 100 mM MOPS pH 7.0, 25 °C
purified protein [2] = substrate: O=CC=O; test: purified protein; type: biochemical, Arabidopsis thaliana; settings: true substrate is the hemithioacetal of GO and GSH (preformed 30 min; HTA concentration calculated with Kdiss 3.0 mM), 1.7 mM GSH, 0.5 mM Mn2+, 100 mM MOPS pH 7.0, 25 °C

Protein	Km (purified protein [1]) [µM]	kcat (purified protein [1]) [s⁻¹]	kcat/Km (purified protein [1]) [M⁻¹ s⁻¹]	Km (purified protein [2]) [µM]	kcat (purified protein [2]) [s⁻¹]	kcat/Km (purified protein [2]) [M⁻¹ s⁻¹]
B1	297 ± 14	7.5 ± 0.9	25300 ± 1700	411 ± 18	2.8 ± 0.3	6800 ± 600
B2	295 ± 23	9.1 ± 1.7	26400 ± 2200	415 ± 17	2.4 ± 0.3	6500 ± 500
B3	311 ± 18	8.4 ± 1.2	27000 ± 2400	403 ± 12	2.5 ± 0.4	6200 ± 300
B4	302 ± 15	8.1 ± 1.1	25800 ± 2100	407 ± 15	2.6 ± 0.3	6700 ± 500
